Results taken from patent US20130316376.

Test system: His6ZQGRep4CT

**Q.** With Protease 3C as the substance, how does the “Protease 3C cleavage of a Z-Rep4CT fiber (SDS-PAGE of the cleavage supernatant)” value read?
**A.** the Protease 3C cleavage site is available for cleavage in Z-Rep4CT fibers and therefore, the HZ part can be removed
